# ± gives the uncertainty stated by the source.
# Assay: self-splicing fitness, log relative to wild type (ln ratio); higher = more splicing; Tetrahymena group I intron in knt gene, E. coli kanamycin selection, DiMSum; sequences stand for … in CUCUCU…GGAGGGAAAAGUUAUCAGGCAUGCACCUGGUAGCUAGUCUUUAAACCAAUAGAUUGCAUCGGUUUAAAAGGCAAGACCGUCAAAUUGCGGGAAAGGGGUCAACAGCCGUUCAGUACCAAGUCUCAGGGGAAACUUUGAGAUGGCCUUGCAAAGGGUAUGGUAAUAAGCUGACGGACAUGGUCCUAACCACGCAGCCAAGUCCUAAGUCAACAGAUCUUCUGUUGAUAUGGAUGCAGUUCACAGACUAAAUGUCGGUCGGGGAAGAUGUAUUCUUCUCAUAAGAUAUAGUCGGACCUCUCCUUAAUGGGAGCUAGCGGAUGAAGUGAUGCAACACUGGAGCCGCUGGGAACUAAUUUGUAUGCGAAAGUAUAUUGAUUAGUUUUGGAGUACUCGUGGUCG
# Method in brief: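 A randomised library covering all eight P1ex-region intron nucleotides was built with the intron in the knt kanamycin-resistance gene on pET-22b(+) and held in E. coli BL21(DE3). Cells were grown overnight at 37°C or 30°C on LB agar, with or without 25 μg/mL kanamycin, plus 100 μg/mL carbenicillin, 50 μM IPTG and 0.2% rhamnose, and pooled colonies were amplicon-sequenced on an Illumina HiSeq 2500. DiMSum fitness is the error-weighted combination of wild-type-normalised replicate fold changes, kanamycin versus none.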
sequence,measurement,setting,value
UGGCAGCAAUAUUACGGGCG,self-splicing fitness (ln),30 °C,0.162 ± 0.071
same,self-splicing fitness (ln),37 °C,0.586 ± 0.1
AAUCAGCAAUAUUACGGAGC,self-splicing fitness (ln),30 °C,-2.64 ± 0.17
same,self-splicing fitness (ln),37 °C,-0.807 ± 0.16
ACCUAGCAAUAUUACGCGCA,self-splicing fitness (ln),30 °C,-0.569 ± 0.08
same,self-splicing fitness (ln),37 °C,-0.709 ± 0.087
GUUUAGCAAUAUUACGCAUU,self-splicing fitness (ln),30 °C,-1.53 ± 0.11
same,self-splicing fitness (ln),37 °C,-0.487 ± 0.12
ACACAGCAAUAUUACGCUUG,self-splicing fitness (ln),30 °C,-1.24 ± 0.063
same,self-splicing fitness (ln),37 °C,-0.733 ± 0.076
CGAAAGCAAUAUUACGACCC,self-splicing fitness (ln),30 °C,-1.42 ± 0.2
same,self-splicing fitness (ln),37 °C,-0.478 ± 0.23
ACUUAGCAAUAUUACGUAGA,self-splicing fitness (ln),30 °C,-3.26 ± 0.13
same,self-splicing fitness (ln),37 °C,-1.59 ± 0.11
GACCAGCAAUAUUACGCCAC,self-splicing fitness (ln),37 °C,-2.73 ± 0.46
GAUCAGCAAUAUUACGUUGC,self-splicing fitness (ln),30 °C,-2.84 ± 0.27
same,self-splicing fitness (ln),37 °C,-3.1 ± 0.31
GGUGAGCAAUAUUACGCCUG,self-splicing fitness (ln),37 °C,-1.47 ± 0.28
AAUAAGCAAUAUUACGCAUU,self-splicing fitness (ln),30 °C,-2.97 ± 0.21
same,self-splicing fitness (ln),37 °C,-2.56 ± 0.28
AAUAAGCAAUAUUACGCGGA,self-splicing fitness (ln),30 °C,-2.57 ± 0.22
same,self-splicing fitness (ln),37 °C,-1.33 ± 0.19
CACGAGCAAUAUUACGGUUA,self-splicing fitness (ln),30 °C,-2.76 ± 0.17
same,self-splicing fitness (ln),37 °C,-2.48 ± 0.16
GGUCAGCAAUAUUACGCACU,self-splicing fitness (ln),30 °C,-2.12 ± 0.27
same,self-splicing fitness (ln),37 °C,-0.976 ± 0.24
CGUGAGCAAUAUUACGUGCU,self-splicing fitness (ln),30 °C,-3.78 ± 0.29
same,self-splicing fitness (ln),37 °C,-2.97 ± 0.34
GAGUAGCAAUAUUACGGCUG,self-splicing fitness (ln),30 °C,-1.21 ± 0.19
same,self-splicing fitness (ln),37 °C,-1.54 ± 0.27
AGUCAGCAAUAUUACGAGAC,self-splicing fitness (ln),30 °C,-4.42 ± 0.39
same,self-splicing fitness (ln),37 °C,-2.56 ± 0.24
ACUUAGCAAUAUUACGCAAU,self-splicing fitness (ln),30 °C,-3.64 ± 0.26
same,self-splicing fitness (ln),37 °C,-2.05 ± 0.21
CCGUAGCAAUAUUACGCAUU,self-splicing fitness (ln),30 °C,-3.54 ± 0.31
same,self-splicing fitness (ln),37 °C,-2.9 ± 0.47
UCGCAGCAAUAUUACGAGUG,self-splicing fitness (ln),30 °C,-1.48 ± 0.088
same,self-splicing fitness (ln),37 °C,-0.719 ± 0.1
UGCCAGCAAUAUUACGGUCG,self-splicing fitness (ln),30 °C,-1.14 ± 0.068
same,self-splicing fitness (ln),37 °C,-0.0276 ± 0.075
GCUAAGCAAUAUUACGUCUG,self-splicing fitness (ln),30 °C,-1.84 ± 0.085
same,self-splicing fitness (ln),37 °C,-0.987 ± 0.096
AACUAGCAAUAUUACGGUUG,self-splicing fitness (ln),30 °C,-1.36 ± 0.1
same,self-splicing fitness (ln),37 °C,-0.299 ± 0.11
UACCAGCAAUAUUACGAUAA,self-splicing fitness (ln),30 °C,-0.622 ± 0.093
same,self-splicing fitness (ln),37 °C,-0.122 ± 0.1
GAGGAGCAAUAUUACGCGCA,self-splicing fitness (ln),30 °C,-2.42 ± 0.2
same,self-splicing fitness (ln),37 °C,-0.968 ± 0.16
UUUAAGCAAUAUUACGUCUG,self-splicing fitness (ln),30 °C,-0.513 ± 0.1
same,self-splicing fitness (ln),37 °C,-0.114 ± 0.12
CUACAGCAAUAUUACGCCUA,self-splicing fitness (ln),30 °C,-2.46 ± 0.18
same,self-splicing fitness (ln),37 °C,-3.31 ± 0.28
UUUUAGCAAUAUUACGGGUA,self-splicing fitness (ln),30 °C,-1.75 ± 0.3
same,self-splicing fitness (ln),37 °C,-0.417 ± 0.28
AUAAAGCAAUAUUACGGCAU,self-splicing fitness (ln),30 °C,0.53 ± 0.098
same,self-splicing fitness (ln),37 °C,-0.0243 ± 0.11
CUAUAGCAAUAUUACGUCCA,self-splicing fitness (ln),30 °C,-4.03 ± 0.36
same,self-splicing fitness (ln),37 °C,-3.13 ± 0.4
CGCGAGCAAUAUUACGAUGU,self-splicing fitness (ln),30 °C,-3.79 ± 0.23
same,self-splicing fitness (ln),37 °C,-2.74 ± 0.22
UGUCAGCAAUAUUACGGAAC,self-splicing fitness (ln),30 °C,-3.82 ± 0.2
same,self-splicing fitness (ln),37 °C,-2.23 ± 0.3
GGUCAGCAAUAUUACGAGGU,self-splicing fitness (ln),30 °C,-1.01 ± 0.13
same,self-splicing fitness (ln),37 °C,-1.7 ± 0.22
AUUGAGCAAUAUUACGCAGG,self-splicing fitness (ln),30 °C,-3.68 ± 0.29
same,self-splicing fitness (ln),37 °C,-2.72 ± 0.27
UUAUAGCAAUAUUACGUUCC,self-splicing fitness (ln),37 °C,-2.09 ± 0.48
UGGAAGCAAUAUUACGAUAU,self-splicing fitness (ln),30 °C,-2.59 ± 0.18
same,self-splicing fitness (ln),37 °C,-2.39 ± 0.21
ACGAAGCAAUAUUACGUAAU,self-splicing fitness (ln),30 °C,-2.57 ± 0.087
same,self-splicing fitness (ln),37 °C,-1.23 ± 0.088
CGGGAGCAAUAUUACGUGAU,self-splicing fitness (ln),37 °C,-0.773 ± 0.19
AACUAGCAAUAUUACGUCAA,self-splicing fitness (ln),30 °C,-2.66 ± 0.18
same,self-splicing fitness (ln),37 °C,-2.13 ± 0.15
CGCAAGCAAUAUUACGGCGU,self-splicing fitness (ln),30 °C,-3.52 ± 0.15
same,self-splicing fitness (ln),37 °C,-2.2 ± 0.18
AAUCAGCAAUAUUACGGGCG,self-splicing fitness (ln),30 °C,-0.742 ± 0.059
same,self-splicing fitness (ln),37 °C,-0.382 ± 0.075
CACCAGCAAUAUUACGAAAU,self-splicing fitness (ln),30 °C,-4.11 ± 0.18
same,self-splicing fitness (ln),37 °C,-2.29 ± 0.16
CUUAAGCAAUAUUACGUGUC,self-splicing fitness (ln),30 °C,-4.45 ± 0.21
same,self-splicing fitness (ln),37 °C,-1.8 ± 0.15

# — the supplement of paper PMC7877785
